For experiment [1], the target named is T1, human CD71 (transferrin receptor protein 1, TfR1) on human cell lines (human, UniProt P02786 1-760).
T1 construct: whole, on cells; also called huCD71
Kind of experiment: FACS on DMS 79 cells. The method, then: (§1) In this study, the binding of the antibodies and ADCs of the present disclosure to the indicated cell lines were performed using a standard FACS labelling method.

The target of experiment [2] is T1, human CD71 (transferrin receptor …). Kind of experiment: FACS on DMS 153 cells. The method, then: as §1
The next experiment has as its target T2, Human CD71-His6 (human, UniProt P02786 89-760, limits assumed).
T2 construct: immobilized on Ni-NTA substrate (Octet); also called recombinant human CD71 protein with hexa-histidine tag
Nature of the experiment: BLI (Octet), CD71-His6 on Ni-NTA, Fab in solution. An excerpt:
(§2) The recombinant CD71 proteins included a hexa-histidine (His6) peptide tag, by which the protein was immobilized to a Ni-NTA (nitrilotriacetic acid)-containing substrate.

In another experiment the target is T3, Cyno CD71-His6 (cynomolgus monkey, UniProt H9EXL1 89-760 (rhesus entry)).
T3 construct: immobilized on Ni-NTA substrate (Octet); also called recombinant cynomolgus CD71 protein with hexa-histidine tag
Nature of the experiment: BLI (Octet), CD71-His6 on Ni-NTA, Fab in solution.
From the text: as §2

Experiment [3] addresses T4, recombinant human CD71 protein (human, UniProt P02786 89-760).
T4 construct: also called recombinant CD71
Nature of the experiment: ELISA; Kd against CD71 21.12. The method, then: (§3) The amount of bound antibody was detected by incubation and detection by goat anti-human antibody conjugated to horseradish peroxidase and Ultra TMB (Thermo Fisher Scientific) detection.

Experiment [4] has as its target T4, recombinant human CD71 protein. Kind of experiment: ELISA; Kd against CD71 21.12. The method, then:
as §3
This is another data set of the same source.

Experiment [5] concerns the target T1, human CD71 (transferrin receptor …). Kind of experiment: FACS on FaDu cells, uncleaved. The method, then: (§4) In this study, the binding of the antibodies of the present disclosure to the indicated cell lines were performed using a standard FACS labelling method.
The target is the same in experiment [6]. Nature of the experiment: FACS on HT29 cells, uncleaved. Here is the method: as §4
For experiment [7] the target is unchanged. Nature of the experiment: FACS on BxPC3 cells, uncleaved. Here is the method: as §4
The target of experiment [8] is T4, recombinant human CD71 protein. Nature of the experiment: ELISA, 1 µg/mL CD71, uncleaved. The method, then:
as §3

Experiment [9] deals with T1, human CD71 (transferrin receptor …). Nature of the experiment: FACS on MDA MB 231 cells, uncleaved. Here is the method:
as §4

Experiment [10] shares this target. Kind of experiment: FACS on FaDu cells; Kd against CD71-Ab. The method, then:
as §4

Experiment [11] shares this target. Nature of the experiment: FACS on HT29 cells; Kd against CD71-Ab. Here is the method:
as §4

For experiment [12] the target is unchanged. Nature of the experiment: FACS on BxPC3 cells; Kd against CD71-Ab. The method, then:
as §4

Experiment [13] has the same target. Kind of experiment: FACS on MDA MB 231 cells; Kd against CD71-Ab. Here is the method:
as §4

In experiment [14] the target is T4, recombinant human CD71 protein. Kind of experiment: ELISA, 1 µg/mL CD71 on nickel plates, not activated. Here is the method: as §3
For experiment [15], the target named is T1, human CD71 (transferrin receptor …). Nature of the experiment: FACS on H292 cells. The method, then:
as §4

For experiment [16] the target is unchanged. Kind of experiment: FACS on HCC1806 cells. Here is the method:
as §4

The target is the same in experiment [17]. Nature of the experiment: FACS on H292 cells, uncleaved. The method, then:
In this study, the binding of the antibodies of the present disclosure to the indicated cell lines were performed using a standard FACS labelling method. […] These activatable antibodies include the light chain of the correspondingly named sequence listed above in Table C. The cells were labeled with the indicated test article at the indicated concentrations and subsequently detected with an Alexa Fluor 647 labeled goat anti-human IgG secondary antibody.

For experiment [18], the target named is T4, recombinant human CD71 protein. Nature of the experiment: ELISA, 1 µg/mL recombinant human CD71, uncleaved. Here is the method:
as §3

The target in experiment [19] is T1, human CD71 (transferrin receptor …). Kind of experiment: FACS on MDA MB 231 cells. The method, then:
as §4

Like-named read-outs stand apart in the source and are kept apart here.

T1 sequence (P02786 whole entry): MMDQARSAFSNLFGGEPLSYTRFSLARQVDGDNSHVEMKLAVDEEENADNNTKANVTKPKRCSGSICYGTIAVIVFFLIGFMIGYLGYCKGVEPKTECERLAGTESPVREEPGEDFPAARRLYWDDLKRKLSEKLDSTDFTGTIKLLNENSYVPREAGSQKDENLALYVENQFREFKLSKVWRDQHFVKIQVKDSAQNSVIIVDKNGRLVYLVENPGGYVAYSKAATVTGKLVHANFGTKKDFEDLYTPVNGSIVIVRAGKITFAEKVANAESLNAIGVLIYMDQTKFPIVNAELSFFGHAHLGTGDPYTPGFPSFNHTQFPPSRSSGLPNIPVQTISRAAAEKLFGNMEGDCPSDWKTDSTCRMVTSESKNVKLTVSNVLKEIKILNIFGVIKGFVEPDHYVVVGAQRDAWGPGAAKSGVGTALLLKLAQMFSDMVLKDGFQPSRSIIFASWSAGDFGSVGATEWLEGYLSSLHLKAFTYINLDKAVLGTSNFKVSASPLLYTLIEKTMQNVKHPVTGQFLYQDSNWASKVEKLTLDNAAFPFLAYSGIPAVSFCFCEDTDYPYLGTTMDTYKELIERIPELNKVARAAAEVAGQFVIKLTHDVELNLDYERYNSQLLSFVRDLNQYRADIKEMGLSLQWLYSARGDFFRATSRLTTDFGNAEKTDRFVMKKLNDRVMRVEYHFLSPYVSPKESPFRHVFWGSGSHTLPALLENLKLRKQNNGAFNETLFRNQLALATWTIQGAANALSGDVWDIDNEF
T3 sequence (chain, as listed by the source): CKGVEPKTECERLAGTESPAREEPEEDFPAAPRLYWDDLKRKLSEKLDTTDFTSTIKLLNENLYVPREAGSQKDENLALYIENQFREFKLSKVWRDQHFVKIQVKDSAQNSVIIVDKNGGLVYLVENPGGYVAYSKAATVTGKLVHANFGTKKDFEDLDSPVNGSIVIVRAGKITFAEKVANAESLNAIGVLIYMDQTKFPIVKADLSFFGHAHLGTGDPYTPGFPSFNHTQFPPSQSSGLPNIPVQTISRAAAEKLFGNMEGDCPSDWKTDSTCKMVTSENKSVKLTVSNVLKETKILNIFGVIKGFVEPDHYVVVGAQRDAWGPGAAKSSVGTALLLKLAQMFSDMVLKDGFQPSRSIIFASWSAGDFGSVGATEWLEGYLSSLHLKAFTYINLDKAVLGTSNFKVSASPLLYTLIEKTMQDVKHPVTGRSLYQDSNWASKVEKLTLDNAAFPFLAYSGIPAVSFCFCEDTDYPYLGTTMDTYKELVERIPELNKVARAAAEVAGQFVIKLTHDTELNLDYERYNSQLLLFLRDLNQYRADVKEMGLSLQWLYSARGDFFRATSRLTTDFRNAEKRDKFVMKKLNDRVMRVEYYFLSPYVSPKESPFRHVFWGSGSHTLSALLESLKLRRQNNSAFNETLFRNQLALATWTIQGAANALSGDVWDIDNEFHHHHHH
T4 sequence (P02786 89-760 limits assumed): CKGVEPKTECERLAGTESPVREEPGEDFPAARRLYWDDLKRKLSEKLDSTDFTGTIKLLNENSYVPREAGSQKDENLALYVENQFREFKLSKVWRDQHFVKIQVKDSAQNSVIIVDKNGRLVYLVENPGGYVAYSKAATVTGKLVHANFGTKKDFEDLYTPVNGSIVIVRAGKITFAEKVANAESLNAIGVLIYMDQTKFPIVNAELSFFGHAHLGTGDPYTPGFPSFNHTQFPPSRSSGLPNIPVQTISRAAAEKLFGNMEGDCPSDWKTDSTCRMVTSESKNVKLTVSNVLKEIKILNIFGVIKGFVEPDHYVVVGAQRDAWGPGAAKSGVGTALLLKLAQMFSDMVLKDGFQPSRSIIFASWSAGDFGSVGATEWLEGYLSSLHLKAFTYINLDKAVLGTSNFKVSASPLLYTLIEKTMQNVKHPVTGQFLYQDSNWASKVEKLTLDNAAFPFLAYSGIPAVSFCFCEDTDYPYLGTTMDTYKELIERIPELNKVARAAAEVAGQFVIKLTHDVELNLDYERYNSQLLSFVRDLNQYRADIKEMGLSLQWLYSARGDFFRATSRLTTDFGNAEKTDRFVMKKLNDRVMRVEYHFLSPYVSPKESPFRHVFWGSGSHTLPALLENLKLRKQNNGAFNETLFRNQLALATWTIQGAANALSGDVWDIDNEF
T2 sequence (P02786 other isoform, or with tags, fused parts or gaps limits assumed): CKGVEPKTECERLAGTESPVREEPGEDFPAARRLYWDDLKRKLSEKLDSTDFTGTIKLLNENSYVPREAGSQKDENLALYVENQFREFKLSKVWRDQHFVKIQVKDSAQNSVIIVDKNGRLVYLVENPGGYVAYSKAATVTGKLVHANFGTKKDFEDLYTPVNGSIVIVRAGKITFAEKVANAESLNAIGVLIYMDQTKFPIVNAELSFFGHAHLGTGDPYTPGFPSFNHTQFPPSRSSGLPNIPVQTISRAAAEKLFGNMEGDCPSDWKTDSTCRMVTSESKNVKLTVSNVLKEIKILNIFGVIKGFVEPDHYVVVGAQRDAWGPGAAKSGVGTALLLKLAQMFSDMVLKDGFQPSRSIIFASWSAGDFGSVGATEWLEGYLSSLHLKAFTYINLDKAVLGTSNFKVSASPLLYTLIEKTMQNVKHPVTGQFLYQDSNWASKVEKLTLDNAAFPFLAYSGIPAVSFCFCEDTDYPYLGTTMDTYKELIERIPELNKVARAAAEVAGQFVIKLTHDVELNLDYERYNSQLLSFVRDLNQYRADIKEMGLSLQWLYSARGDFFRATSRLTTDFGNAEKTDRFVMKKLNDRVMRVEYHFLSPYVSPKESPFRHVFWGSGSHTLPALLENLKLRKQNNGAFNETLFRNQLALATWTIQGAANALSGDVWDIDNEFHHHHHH

B1: anti-human CD71 Ab21.12-Duoc (antibody, human IgG1, kappa)
heavy: not shown
light: DIQMTQSPSSLSASVGDRVTITCSASSSVYYMYWFQQKPGKAPKLWIYSTSNLASGVPSRFSGSGSGTDYTLTISSMQPEDFATYYCQQRRNYPYTFGQGTKLEIKRTVAAPSVFIFPPSDEQLKSGTASVVCLLNNFYPREAKVQWKVDNALQSGNSQESVTEQDSKDSTYSLSSTLTLSKADYEKHKVYACEVTHQGLSSPVTKSFNRGEC
modifications: duocarmycin conjugated to the antibody; chain and residues not stated
notes: antibody drug conjugate of Ab21.12; also called anti-human CD71 antibody conjugated to duocarmycin
As to B1, the equilibrium dissociation constant (Kd) in experiment [1] was 1.09 nM; in [2], 2.3 nM.

B2: anti-CD71 Fab fragment (papain digest of anti-CD71 21.12) (Fab, V domains shown)
VH: QVQLVQSGAEVKKPGASVKMSCKASGYTFTSYWMHWVRQAPGQGLEWIGAIYPGNSETGYAQKFQGRATLTADTSTSTAYMELSSLRSEDTAVYYCTRENWDPGFAFWGQGTLITVSS
VL: DIQMTQSPSSLSASVGDRVTITCSASSSVYYMYWFQQKPGKAPKLWIYSTSNLASGVPSRFSGSGSGTDYTLTISSMQPEDFATYYCQQRRNYPYTFGQGTKLEIKR
In the experiment with Human CD71-His6, B2 yielded a Kd of 14 nM, a dissociation rate constant (koff) of 0.00398 s⁻¹ and a kon of 664000 M⁻¹ s⁻¹. In addition, in the experiment with Cyno CD71-His6, binding was characterised by a dissociation constant (Kd) of 6 nM, the koff was determined as 0.00559 s⁻¹ and the kon is 390000 M⁻¹ s⁻¹.

B3: anti-human CD71 TF02.18-2001 activatable antibody (antibody, human IgG1, kappa)
heavy: not shown
light: QGQSGQGCTEHSFALDCGGGSSGGSISSGLLSGRSDNHGGGSDIQMTQSPSSLSASVGDRVTITCSASSSVYYMYWFQQKPGKAPKLWIYSTSNLASGVPSRFSGSGSGTDYTLTISSMQPEDFATYYCQQRRNYPYTFGQGTKLEIKRTVAAPSVFIFPPSDEQLKSGTASVVCLLNNFYPREAKVQWKVDNALQSGNSQESVTEQDSKDSTYSLSSTLTLSKADYEKHKVYACEVTHQGLSSPVTKSFNRGEC
notes: also called CD71-ActAb 2
B3: the “ME (masking efficiency)” value worked out at 9 fold in experiment [3]; 11 fold in experiment [4]; 39 fold in [10]; 39 fold in experiment [11]; 43 fold in experiment [12]; 38 fold in experiment [13]. Further, the Kd in experiment [5] is 15.4 nM; in experiment [6], 19.7 nM; in experiment [7], 36.4 nM; in [8], 1.59 nM; in experiment [9], 32 nM; in [14] it was 3 nM.

B4: anti-human CD71 TF02.13-2001 activatable antibody (antibody, human IgG1, kappa)
heavy: not shown
light: QGQSGQGNLCTEHSAALDCRSYGGGSSGGSISSGLLSGRSDNHGGGSDIQMTQSPSSLSASVGDRVTITCSASSSVYYMYWFQQKPGKAPKLWIYSTSNLASGVPSRFSGSGSGTDYTLTISSMQPEDFATYYCQQRRNYPYTFGQGTKLEIKRTVAAPSVFIFPPSDEQLKSGTASVVCLLNNFYPREAKVQWKVDNALQSGNSQESVTEQDSKDSTYSLSSTLTLSKADYEKHKVYACEVTHQGLSSPVTKSFNRGEC
Consider B4, for which, in experiment [15], the “Bmax (MFI)” value was determined as 2210 MFI. The Kd was 92.3 nM in [15]; ~200 nM in [16]; 27.5 nM in experiment [17]; 9.14 nM in experiment [8]; 2.53 nM in experiment [18]; 13 nM in experiment [14]. Also, the “ME (masking efficiency)” value is 42 fold in [3] and 65 fold in experiment [4].

B5: anti-human CD71 TF02.13-3001 activatable antibody (antibody, human IgG1, kappa)
heavy: not shown
light: QGQSGQGNLCTEHSAALDCRSYGGGSSGGSAVGLLAPPGGLSGRSDNHGGSDIQMTQSPSSLSASVGDRVTITCSASSSVYYMYWFQQKPGKAPKLWIYSTSNLASGVPSRFSGSGSGTDYTLTISSMQPEDFATYYCQQRRNYPYTFGQGTKLEIKRTVAAPSVFIFPPSDEQLKSGTASVVCLLNNFYPREAKVQWKVDNALQSGNSQESVTEQDSKDSTYSLSSTLTLSKADYEKHKVYACEVTHQGLSSPVTKSFNRGEC
notes: also called CD71-ActAb 1
Consider B5, for which the “Bmax (MFI)” value in experiment [15] is 1820 MFI. In addition, the Kd was 52.1 nM in [15]; ~200 nM in [16]; 30.6 nM in experiment [19]; 14.7 nM in [5]; 23 nM in [6]; 10.2 nM in experiment [17]. For the same molecule, the Kd in experiment [7] came out at 35.2 nM; in [9], 38.8 nM; in experiment [18], 0.813 nM. The “ME (masking efficiency)” value in [10] came to 38 fold; in [11], 45 fold; in experiment [12], 43 fold; in [13], 46 fold.

(Values after patent US20220306759A1 (CYTOMX THERAPEUTICS, published 2022).)
